The values that follow come from publication PMC3184960.

The labels stand for the following.
B1: c-Myc-tagged wild-type XAP2 [human] / ERα, transfected in HeLa cells [not stated] (parent)
chain 1: MADIIARLREDGIQKRVIQEGRGELPDFQDGTKATFHYRTLHSDDEGTVLDDSRARGKPMELIIGKKFKLPVWETIVCTMREGEIAQFLCDIKHVVLYPLVAKSLRNIAVGKDPLEGQRHCCGVAQMREHSSLGHADLDALQQNPQPLIFHMEMLKVESPGTYQQDPWAMTDEEKAKAVPLIHQEGNRLYREGHVKEAAAKYYDAIACLKNLQMKEQPGSPEWIQLDQQITPLLLNYCQCKLVVEEYYEVLDHCSSILNKYDDNVKAYFKRGKAHAAVWNAQEAQADFAKVLELDPALAPVVSRELRALEARIRQKDEEDKARFRGIFSH
chain 2: MTMTLHTKASGMALLHQIQGNELEPLNRPQLKIPLERPLGEVYLDSSKPAVYNYPEGAAYEFNAAAAANAQVYGQTGLPYGPGSEAAAFGSNGLGGFPPLNSVSPSPLMLLHPPPQLSPFLQPHGQQVPYYLENEPSGYTVREAGPPAFYRPNSDNRRQGGRERLASTNDKGSMAMESAKETRYCAVCNDYASGYHYGVWSCEGCKAFFKRSIQGHNDYMCPATNQCTIDKNRRKSCQACRLRKCYEVGMMKGGIRKDRRGGRMLKHKRQRDDGEGRGEVGSAGDMRAANLWPSPLMIKRSKKNSLALSLTADQMVSALLDAEPPILYSEYDPTRPFSEASMMGLLTNLADRELVHMINWAKRVPGFVDLTLHDQVHLLECAWLEILMIGLVWRSMEHPGKLLFAPNLLLDRNQGKCVEGMVEIFDMLLATSSRFRMMNLQGEEFVCLKSIILLNSGVYTFLSSTLKSLEEKDHIHRVLDKITDTLIHLMAKAGLTLQQQHQRLAQLLLILSHIRHMSNKGMEHLYSMKCKNVVPLYDLLLEMLDAHRLHAPTSRGGASVEETDQSHLATAGSTSSHSLQKYYITGEAEGFPATV

Variants of B1 are the subject of this test. The test is described as follows: co-immunoprecipitation (IP with ERα antibody, Western blot with c-Myc antibody, band densitometry). As to conditions: 24 h after transfection.
Where [1] appears, read: 10 nM E2 for 1 h, parent: 1, read off a plot.
Setting [2] is: DMSO (veh) for 1 h, parent: 0.9, read off a plot.

For the variant chain 1 R271W, the ratio to parent runs as follows: under setting [1], 0.68; under setting [2], 0.85.

With chain 1 V49M, the ratio to parent under setting [1] stood at 0.97 and the ratio to parent under setting [2] turned out to be 0.85.
